# From US20040170960A1
# Biological target: murine GM-CSF receptor (murine) (UniProt Q00941)
# Test: cell-based or functional assay
# Sequence of UniProt Q00941 (Q00941 30-388, chain 1 of 2): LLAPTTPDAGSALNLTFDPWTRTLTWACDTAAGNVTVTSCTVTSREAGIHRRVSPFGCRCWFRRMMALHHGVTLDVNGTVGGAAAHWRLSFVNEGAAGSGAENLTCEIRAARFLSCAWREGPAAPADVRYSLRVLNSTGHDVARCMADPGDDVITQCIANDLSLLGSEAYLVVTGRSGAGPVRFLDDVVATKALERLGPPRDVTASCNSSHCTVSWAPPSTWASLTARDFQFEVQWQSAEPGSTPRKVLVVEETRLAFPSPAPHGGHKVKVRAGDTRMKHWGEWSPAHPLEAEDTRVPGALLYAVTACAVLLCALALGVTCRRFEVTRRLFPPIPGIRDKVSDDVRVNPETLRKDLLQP
# Sequence of UniProt Q00941 (P26955 23-896, chain 2 of 2, further chain): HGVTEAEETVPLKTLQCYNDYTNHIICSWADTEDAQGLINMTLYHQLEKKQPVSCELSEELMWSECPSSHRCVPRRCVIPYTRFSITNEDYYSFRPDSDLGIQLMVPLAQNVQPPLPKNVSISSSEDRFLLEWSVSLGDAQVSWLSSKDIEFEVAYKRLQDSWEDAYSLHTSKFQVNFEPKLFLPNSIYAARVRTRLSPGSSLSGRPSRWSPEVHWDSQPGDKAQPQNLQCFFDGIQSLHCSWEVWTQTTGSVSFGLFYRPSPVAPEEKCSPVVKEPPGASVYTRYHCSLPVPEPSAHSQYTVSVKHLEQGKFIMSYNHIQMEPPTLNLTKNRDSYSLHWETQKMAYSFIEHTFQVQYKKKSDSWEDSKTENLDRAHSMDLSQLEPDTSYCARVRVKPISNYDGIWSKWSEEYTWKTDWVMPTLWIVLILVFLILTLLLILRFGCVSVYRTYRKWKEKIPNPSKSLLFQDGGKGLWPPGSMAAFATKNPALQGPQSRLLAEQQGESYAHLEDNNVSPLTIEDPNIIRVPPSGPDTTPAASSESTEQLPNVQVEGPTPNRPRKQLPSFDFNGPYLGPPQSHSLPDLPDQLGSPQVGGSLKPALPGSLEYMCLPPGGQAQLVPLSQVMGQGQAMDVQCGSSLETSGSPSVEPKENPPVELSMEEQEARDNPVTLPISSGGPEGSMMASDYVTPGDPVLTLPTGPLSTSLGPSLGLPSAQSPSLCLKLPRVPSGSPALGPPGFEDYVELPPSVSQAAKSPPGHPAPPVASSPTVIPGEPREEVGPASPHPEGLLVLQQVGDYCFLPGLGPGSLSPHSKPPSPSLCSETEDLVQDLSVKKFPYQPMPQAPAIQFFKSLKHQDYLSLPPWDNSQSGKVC
substance,measurement,value
murine GM-CSF fused to the S. cerevesiae Gas1 GPI modification signal sequence (from UniProt P01587 18-141; P22146 474-559) (other; the values are: proliferation increase vs soluble GM-CSF),proliferation of FDC-P1 cells (Biotrak BrdU cell proliferation ELISA),25%
